Consider one molecule from US20190300618A1 (Merck Sharp & Dohme, published 2019).

What all share (experiment): flow cytometry, CHO-K1; single column;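 also: CHO-K1 cells transiently transfected with hCD27 alanine mutant constructs, anti-hCD27 antibody binding measured by flow cytometry, 30 min at 4 °C, wild-type hCD27 binding taken as 100%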
One experiment addresses T1, K17A.
T1 construct: also called hCD27 K17A
T1 receptor: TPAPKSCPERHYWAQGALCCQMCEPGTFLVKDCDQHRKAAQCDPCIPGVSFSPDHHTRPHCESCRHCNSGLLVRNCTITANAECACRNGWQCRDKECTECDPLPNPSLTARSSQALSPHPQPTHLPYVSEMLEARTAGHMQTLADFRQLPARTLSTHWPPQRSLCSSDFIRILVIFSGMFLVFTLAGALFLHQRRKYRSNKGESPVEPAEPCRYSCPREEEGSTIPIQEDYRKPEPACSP

Another experiment addresses T2, W90A.
T2 construct: also called hCD27 W90A
T2 receptor: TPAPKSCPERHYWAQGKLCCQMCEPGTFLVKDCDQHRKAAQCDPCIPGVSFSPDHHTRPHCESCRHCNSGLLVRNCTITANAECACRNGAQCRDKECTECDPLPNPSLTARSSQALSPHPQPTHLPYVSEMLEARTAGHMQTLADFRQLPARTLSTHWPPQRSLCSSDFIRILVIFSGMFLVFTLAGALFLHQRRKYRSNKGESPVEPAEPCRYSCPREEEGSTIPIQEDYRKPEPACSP

A further experiment deals with T3, Q15A.
T3 construct: also called hCD27 Q15A
T3 receptor: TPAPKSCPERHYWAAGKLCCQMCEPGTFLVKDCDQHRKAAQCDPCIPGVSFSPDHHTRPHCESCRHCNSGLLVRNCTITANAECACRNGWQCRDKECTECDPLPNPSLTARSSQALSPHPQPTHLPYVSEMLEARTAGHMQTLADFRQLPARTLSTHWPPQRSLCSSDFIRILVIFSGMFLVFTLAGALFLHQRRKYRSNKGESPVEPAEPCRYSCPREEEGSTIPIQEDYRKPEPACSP

Protocol for K17A: (§1) The ability of several anti-hCD27 antibodies to bind to a series of hCD27 alanine mutants was determined using CHO-K1 cells, transiently transfected pCI-neo empty vector, pCI-neo.hCD27 and several pCI-neo.CD27Ala mutant constructs.
(§2) Detached cells were transferred to 96 wells round-bottomed well plates at approximately 1.2×10⁵ cells/well. After spinning down the cells, discarding the supernatants and re-suspending the cells in the residual volume, the primary antibodies were added and incubated for 30 minutes at 4° C. Cells were washed three times with DPBS/BSA 1%, followed by centrifugation, discarding of the supernatants and re-suspension in the residual volume. […] After washing once, antibody binding was detected using the HTS plate reader (FACS Canto II) and FlowJo software for data analysis. Debris, dead cells and doublets were excluded from the analysis. Binding was expressed as the geometric mean of the FITC signal, relative to antibody binding to hCD27, which was set at 100%.
Protocol for Q15A: as §1, §2
Protocol for W90A: as §1, §2

B1: hCD27.15-6B (humanized hCD27.15, human IgG4, Clone 6B) (antibody, V domains shown)
VH: QVQLVQSGAEVKKPGASVKVSCKASGFIIKATYMHWVRQAPGQRLEWMGRIDPANGETKYDPKFQVRVTITADTSASTAYMELSSLRSEDTAVYYCARYAWYFDVWGQGTLVTVSS
VL: DIQMTQSPSSLSASVGDRVTITCRASENIYSFLAWYQQKPGKAPKLLIYHAKTLAEGVTSRFSGSGSGTDFTLTISSLQPEDSATYYCQHYYGSPLTFGQGTRLEIKR
notes: humanized version of hCD27.15 from WO2012/004367 with identical CDR regions; also called hCD27.15 (humanized 6B); hCD27.15 6B humanized antibody
For B1, the results for the “% of WT hCD27 binding (geo mean FITC)” value with K17A, with W90A and in the experiment with Q15A were 120%, 93.8% and 98.6%, respectively.
